Target: Caulobacter crescentus ScsC with a His tag, without signal sequence (Caulobacter crescentus)
Assay: SEC

stoichiometry N: 2
Substance: Caulobacter crescentus ScsC with a His tag, without signal sequence (natural protein)
